According to US20220235136A1, “METHODS AND COMPOSITIONS FOR TREATING A DISEASE OR DISORDER” (YALE UNIVERSITY, priority 2019, published 2022):

Experiments:
[1] = target: CD93 on cells in Example 20 (transfected HEK293T cells, FIG. 28A; CHO cells stably expressing CD93, FIG. 28B); species not stated; test: flow cytometry, CHO cells stably expressing CD93 stained with IGFBP7-Ig (dashed) or Control (solid) in the presence of MMRN2 (panel '+MMRN2', form of the MMRN2 not stated); bar chart of MFI beside it marked ns against 'None'
[2] = target: CD248 on transfected HEK293T cells; test: flow cytometry, HEK293T cells transfected with CD248 stained with IGFBP7-Ig; dashed = transfectant, solid = WT 293T; histograms overlie; the text tells this pair as not binding
[3] = target: CD93 on cells in Example 20 (transfected HEK293T cells, FIG. 28A; CHO cells stably expressing CD93, FIG. 28B); species not stated; test: flow cytometry, CHO cells stably expressing CD93 stained with IGFBP7-Ig (dashed) or Control (solid), no competitor
[4] = target: CD93 on cells in Example 20 (transfected HEK293T cells, FIG. 28A; CHO cells stably expressing CD93, FIG. 28B); species not stated; test: flow cytometry, HEK293T cells transfected with CD93 stained with IGFBP7-Ig; dashed = transfectant, solid = WT 293T
CD141 [5] = test: flow cytometry, HEK293T cells transfected with CD141 stained with IGFBP7-Ig; dashed = transfectant, solid = WT 293T; histograms overlie
[6] = target: CLEC14A on transfected HEK293T cells; test: flow cytometry, HEK293T cells transfected with CLEC14A stained with IGFBP7-Ig; dashed = transfectant, solid = WT 293T; histograms nearly overlie; the text tells this pair as not binding
[7] = target: CD93 on cells in Example 20 (transfected HEK293T cells, FIG. 28A; CHO cells stably expressing CD93, FIG. 28B); species not stated; test: flow cytometry, HEK293T cells transfected with CD93 stained with MMRN2-Ig; dashed = transfectant, solid = WT 293T
[8] = target: CD93 on cells in Example 20 (transfected HEK293T cells, FIG. 28A; CHO cells stably expressing CD93, FIG. 28B); species not stated; test: flow cytometry, CHO cells stably expressing CD93 stained with MMRN2-Ig (dashed) or Control (solid), no competitor
CD141 [9] = test: flow cytometry, HEK293T cells transfected with CD141 stained with MMRN2-Ig; dashed = transfectant, solid = WT 293T; histograms nearly overlie
[10] = target: CD93 on cells in Example 20 (transfected HEK293T cells, FIG. 28A; CHO cells stably expressing CD93, FIG. 28B); species not stated; test: flow cytometry, CHO cells stably expressing CD93 stained with MMRN2-Ig (dashed) or Control (solid) in the presence of IGFBP7-His protein (panel '+IGFBP7'); bar chart of MFI beside it marked ns against 'None'
[11] = target: CLEC14A on transfected HEK293T cells; test: flow cytometry, HEK293T cells transfected with CLEC14A stained with MMRN2-Ig; dashed = transfectant, solid = WT 293T
[12] = target: CD248 on transfected HEK293T cells; test: flow cytometry, HEK293T cells transfected with CD248 stained with MMRN2-Ig; dashed = transfectant, solid = WT 293T

IGFBP7-Ig (Example 20, FIG. 28A and 28E; species not stated) (Fc fusion), sequence (Q16270 27-282): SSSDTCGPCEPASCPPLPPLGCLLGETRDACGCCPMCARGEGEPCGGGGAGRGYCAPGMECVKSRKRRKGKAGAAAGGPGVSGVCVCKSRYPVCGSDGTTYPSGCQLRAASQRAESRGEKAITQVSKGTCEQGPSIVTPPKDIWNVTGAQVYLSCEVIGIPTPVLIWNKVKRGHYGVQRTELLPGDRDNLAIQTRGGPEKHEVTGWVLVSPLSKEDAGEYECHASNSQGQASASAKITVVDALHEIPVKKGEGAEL
CD93 on cells in Example 20 (transfected HEK293T cells, FIG. 28A; CHO cells stably expressing CD93, FIG. 28B); species not stated, sequence (Q9NPY3 22-652): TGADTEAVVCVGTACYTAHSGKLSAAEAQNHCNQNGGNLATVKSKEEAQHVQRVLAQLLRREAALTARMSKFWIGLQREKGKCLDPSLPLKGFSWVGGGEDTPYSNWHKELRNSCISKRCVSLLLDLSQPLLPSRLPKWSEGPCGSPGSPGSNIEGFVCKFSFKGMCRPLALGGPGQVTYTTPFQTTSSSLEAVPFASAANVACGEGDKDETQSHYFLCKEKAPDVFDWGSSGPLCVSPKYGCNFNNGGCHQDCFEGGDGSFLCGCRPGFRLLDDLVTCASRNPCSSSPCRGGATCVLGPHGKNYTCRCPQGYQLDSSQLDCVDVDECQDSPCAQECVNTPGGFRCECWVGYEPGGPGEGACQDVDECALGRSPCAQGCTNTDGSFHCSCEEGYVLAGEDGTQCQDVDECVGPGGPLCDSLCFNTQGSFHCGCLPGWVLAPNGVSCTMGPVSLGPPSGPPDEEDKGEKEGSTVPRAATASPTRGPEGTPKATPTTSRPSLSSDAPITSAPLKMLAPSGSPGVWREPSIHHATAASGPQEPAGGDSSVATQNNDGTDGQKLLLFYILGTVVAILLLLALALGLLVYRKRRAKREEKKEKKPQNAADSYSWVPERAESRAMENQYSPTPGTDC
CD248 on transfected HEK293T cells, sequence (Q9HCU0 18-757): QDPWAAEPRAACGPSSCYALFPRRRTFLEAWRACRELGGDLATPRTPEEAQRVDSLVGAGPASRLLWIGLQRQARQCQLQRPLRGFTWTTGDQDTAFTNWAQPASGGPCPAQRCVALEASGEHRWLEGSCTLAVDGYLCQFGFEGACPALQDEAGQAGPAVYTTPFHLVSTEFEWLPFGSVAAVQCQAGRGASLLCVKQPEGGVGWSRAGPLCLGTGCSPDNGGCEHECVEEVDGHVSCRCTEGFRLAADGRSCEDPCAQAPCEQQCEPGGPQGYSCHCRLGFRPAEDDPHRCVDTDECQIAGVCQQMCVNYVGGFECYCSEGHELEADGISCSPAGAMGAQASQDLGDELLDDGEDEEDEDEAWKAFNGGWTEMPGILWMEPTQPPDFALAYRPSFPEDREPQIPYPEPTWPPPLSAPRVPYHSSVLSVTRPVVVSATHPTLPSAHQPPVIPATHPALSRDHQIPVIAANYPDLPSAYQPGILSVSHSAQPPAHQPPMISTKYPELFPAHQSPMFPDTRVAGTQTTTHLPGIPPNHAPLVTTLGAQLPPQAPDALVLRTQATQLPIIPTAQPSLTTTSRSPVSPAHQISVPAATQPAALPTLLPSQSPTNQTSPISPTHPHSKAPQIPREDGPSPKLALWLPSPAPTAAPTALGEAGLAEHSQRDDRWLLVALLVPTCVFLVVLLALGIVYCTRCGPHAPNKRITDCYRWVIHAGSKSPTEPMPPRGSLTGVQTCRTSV
CLEC14A on transfected HEK293T cells, sequence (Q86T13 22-490): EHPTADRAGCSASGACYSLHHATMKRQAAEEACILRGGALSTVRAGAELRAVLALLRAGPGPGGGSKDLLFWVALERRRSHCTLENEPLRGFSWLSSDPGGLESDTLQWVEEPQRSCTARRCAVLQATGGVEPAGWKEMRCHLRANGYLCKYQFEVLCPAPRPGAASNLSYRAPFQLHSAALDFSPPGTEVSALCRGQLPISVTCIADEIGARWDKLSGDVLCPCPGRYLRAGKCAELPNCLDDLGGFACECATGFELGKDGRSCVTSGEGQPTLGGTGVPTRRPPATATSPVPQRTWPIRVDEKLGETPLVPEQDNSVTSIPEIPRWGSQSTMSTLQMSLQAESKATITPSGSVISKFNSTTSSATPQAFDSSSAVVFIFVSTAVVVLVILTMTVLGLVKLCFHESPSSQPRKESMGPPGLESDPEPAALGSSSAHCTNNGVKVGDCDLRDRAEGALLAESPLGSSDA
CD141, sequence (P07204 19-575): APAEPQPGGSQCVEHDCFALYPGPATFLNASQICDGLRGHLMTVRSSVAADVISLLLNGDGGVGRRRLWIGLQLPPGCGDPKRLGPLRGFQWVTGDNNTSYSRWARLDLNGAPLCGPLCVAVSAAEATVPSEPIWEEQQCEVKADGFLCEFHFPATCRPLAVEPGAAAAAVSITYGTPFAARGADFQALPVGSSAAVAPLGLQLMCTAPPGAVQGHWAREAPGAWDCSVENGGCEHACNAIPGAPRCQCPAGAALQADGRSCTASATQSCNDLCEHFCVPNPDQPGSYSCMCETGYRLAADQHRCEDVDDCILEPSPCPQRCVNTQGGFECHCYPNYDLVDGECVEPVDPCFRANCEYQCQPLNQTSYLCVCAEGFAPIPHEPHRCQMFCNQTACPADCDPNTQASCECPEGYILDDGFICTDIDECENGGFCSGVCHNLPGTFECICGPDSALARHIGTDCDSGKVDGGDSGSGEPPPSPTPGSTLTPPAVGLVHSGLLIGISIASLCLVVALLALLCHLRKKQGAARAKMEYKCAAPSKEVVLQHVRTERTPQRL

Substance | number printed over the positive gate of the histogram (percent of cells, unit not given) [1] | number printed over the positive gate of the histogram (percent of cells, unit not given) [2] | number printed over the positive gate of the histogram (percent of cells, unit not given) [3] | number printed over the positive gate of the histogram (percent of cells, unit not given) [4] | number printed over the positive gate of the histogram (percent of cells, unit not given) (CD141 [5]) | number printed over the positive gate of the histogram (percent of cells, unit not given) [6] | number printed over the positive gate of the histogram (percent of cells, unit not given) [7] | number printed over the positive gate of the histogram (percent of cells, unit not given) [8] | number printed over the positive gate of the histogram (percent of cells, unit not given) (CD141 [9]) | number printed over the positive gate of the histogram (percent of cells, unit not given) [10] | number printed over the positive gate of the histogram (percent of cells, unit not given) [11] | number printed over the positive gate of the histogram (percent of cells, unit not given) [12]
IGFBP7-Ig (Example 20, FIG. 28A and 28E; species not stated) (Fc fusion) | 67.2 | 3.07 | 67 | 28.2 | 2.42 | 5.45 |  |  |  |  |  | 
MMRN2-Ig (Fc fusion) |  |  |  |  |  |  | 52.6 | 94.6 | 2.36 | 93.8 | 25.6 | 13.3
